According to patent US20040248196A1 (COMMONWEALTH SCIENTIFIC AND INDUSTRIAL RESEARCH ORGANISATION, published 2004):

Columns and labels:
M 2-EGFR E 21A [1] = target: T1, M 2-EGFR E 21A (human, UniProt P00533 25-1210); assay: Scatchard plot (B/F specific against Bound) of 125I-EGF binding to BaF/3 cells expressing E21A EGFR, cold ligand titration, fitted with Radlig; first (high affinity) of two sites
T1 construct: whole, on cells; Transiently expressed in 293 cells and stably expressed in BaF/3 cells; also called Glu 21Ala; not shown: N-terminal FLAG tag
Experimental: This was determined in total cell lysates by sequential immunoblotting with anti-phosphotyrosine (top) or anti-EGFR (bottom) antibodies. […] Cross-linking of the EGFR via the extracellular portion was performed at 37° C. to maximize dimer yield. Samples were analyzed by SDS-PAGE on 3-8% gradient gels and immunoblotting with anti-EGFR antibodies.
The isolation and characterisation of stably transfected cell lines expressing wild-type and mutant EGFRs was performed using the II3-dependent murine hemopoietic lineage BaF/3 (Walker et al, 1998, Growth Factors 16, 53-67). Expression vectors containing the appropriate EGFR constructs were transfected individually by electroporation using a Gene Pulser (BioRad) according to manufacturer's instructions. Neomycin-resistant pools were generated by selection in G 418, and cloned by limiting dilution to obtain stable cell lines.

[2] = target: T2, M 2-EGFR (wild-type N-terminus FLAG-tagged EGF receptor) (human, UniProt P00533 25-1210); assay: Scatchard plot (B/F specific against Bound) of 125I-EGF binding to BaF/3 cells expressing wt EGFR, cold ligand titration, fitted with Radlig; second (low affinity) of two sites
T2 construct: whole, on cells; Stably expressed on BaF/3 cells; also called wt EGFR; wild type EGFR; not shown: N-terminal FLAG tag

M 2-EGFR E 21A [3] = target: T1, M 2-EGFR E 21A; assay: Scatchard plot (B/F specific against Bound) of 125I-EGF binding to BaF/3 cells expressing E21A EGFR, cold ligand titration, fitted with Radlig; second (low affinity) of two sites
[4] = target: T2, M 2-EGFR (wild-type N-terminus …); assay: Scatchard plot (B/F specific against Bound) of 125I-EGF binding to BaF/3 cells expressing wt EGFR, cold ligand titration, fitted with Radlig; first (high affinity) of two sites

B1: iodinated murine EGF (ligand, UniProt P01132 977-1029, looked up)
chain: NSYPGCPSSYDGYCLNGGVCMHIESLDSYTCNCVIGYSGDRCQTRDLRWWELR
modifications: 125I-iodinated (site not stated)
notes: mature; Unlabelled EGF was used for the cold titration
In the case of B1, the Kd (M 2-EGFR E 21A [1]) is reported as 0.045 nM, the Kd [2] is reported as 1.1 nM and the Kd (M 2-EGFR E 21A [3]) is reported as 1.1 nM. The Kd [4] was 0.039 nM.
